Test results taken from patent publication US20220401557A1 (Chugai, published 2022).
Substitutions are numbered along the chain they refer to.

B1: hCE115HAuPA20L/GLS//GCH065 (bispecific antibody, human IgG1, kappa, N297A)
heavy 1: QDGNEEMGGITQTPYKVSISGGGGSGGGGSGGGGSLSGRSDNHGGGSQVQLVESGGGVVQPGRSLRLSCAASGFTFSNAWMHWVRQAPGKGLEWVAQIKAKSNNYATYYAESVKGRFTISRDDSKNSLYLQMNSLKTEDTAVYYCRYVHYGAYYGVDAWGQGTTVTVSSASTKGPSVFPLAPSSKSTSGGTAALGCLVKDYFPEPVTVSWNSGALTSGVHTFPAVLQSSGLYSLSSVVTVPSSSLGTQTYICNVNHKPSNTKVDKKVEPKSCDKTHTCPPCPAPELRGGPKVFLFPPKPKDTLMISRTPEVTCVVVDVSHEDPEVKFNWYVDGVEVHNAKTKPREEQYASTYRVVSVLTVLHQDWLNGKEYKCKVSNKALPAPIEKTISKAKGQPREPQVYTLPPSRKEMTKNQVSLTCLVKGFYPSDIAVEWESNGQPENNYKTTPPYLDSDGSFFLYSKLTVDKSRWQQGNVFSCSVMHEALHNHYTQKSLSLSP
light 1: DIVMTQSPLSLPVTPGEPASISCRSSQSLVHSNRNTYLHWYQQKPGQAPRLLIYKVSNRFSGVPDRFSGSGSGTDFTLKISRVEAEDVGVYYCGQGTQVPYTFGQGTKLEIKRTVAAPSVFIFPPSDEQLKSGTASVVCLLNNFYPREAKVQWKVDNALQSGNSQESVTEQDSKDSTYSLSSTLTLSKADYEKHKVYACEVTHQGLSSPVTKSFNRGEC
heavy 2: QVQLVQSGAEVKKPGASVTVSCKASGYTFTDYEMHWIRQPPGEGLEWIGAIDGPTPDTAYSEKFKGRVTLTADKSTSTAYMELSSLTSEDTAVYYCTRFYSYTYWGQGTLVTVSSASTKGPSVFPLAPSSKSTSGGTAALGCLVKDYFPEPVTVSWNSGALTSGVHTFPAVLQSSGLYSLSSVVTVPSSSLGTQTYICNVNHKPSNTKVDKKVEPKSCDKTHTCPPCPAPELRGGPKVFLFPPKPKDTLMISRTPEVTCVVVDVSHEDPEVKFNWYVDGVEVHNAKTKPREEQYASTYRVVSVLTVLHQDWLNGKEYKCKVSNKALPAPIEKTISKAKGQPREPQVYTLPPSREEMTKNQVSLTCLVKGFYPSDIAVEWESNGQPENNYKTTPPYLDSDGSFFLYSKLTVDKSRWQQGNVFSCSVMHEALHNHYTQESLSLSP
light 2: B1 light 1 with S28P
B2: ANuPA20L/GLS//GCH065 (bispecific antibody, human IgG1, kappa, N297A)
heavy 1: QDGNEEMGGITQTPYKVSISGGGGSGGGGSGGGGSLSGRSDNHGGGSQVQLVESGGGLVQPGRSLRLSCAASGFTFSNAWMHWVRQAPGKGLEWVAQIKDKANGYNAYYAESVKGRFTISRDDSKNSIYLQMNSLKTEDTAVYYCRYVHYTTYAGFSYKFGVDAWGQGTTVTVSSASTKGPSVFPLAPSSKSTSGGTAALGCLVKDYFPEPVTVSWNSGALTSGVHTFPAVLQSSGLYSLSSVVTVPSSSLGTQTYICNVNHKPSNTKVDKKVEPKSCDKTHTCPPCPAPELRGGPKVFLFPPKPKDTLMISRTPEVTCVVVDVSHEDPEVKFNWYVDGVEVHNAKTKPREEQYASTYRVVSVLTVLHQDWLNGKEYKCKVSNKALPAPIEKTISKAKGQPREPQVYTLPPSRKEMTKNQVSLTCLVKGFYPSDIAVEWESNGQPENNYKTTPPYLDSDGSFFLYSKLTVDKSRWQQGNVFSCSVMHEALHNHYTQKSLSLSP
light 1: B1 light 1
heavy 2: B1 heavy 2
light 2: B1 light 1 with S28P

Target: CD3 on NFAT-RE-luc2-Jurkat cells (human, UniProt P07766 23-207)
Sequence (P07766 23-207): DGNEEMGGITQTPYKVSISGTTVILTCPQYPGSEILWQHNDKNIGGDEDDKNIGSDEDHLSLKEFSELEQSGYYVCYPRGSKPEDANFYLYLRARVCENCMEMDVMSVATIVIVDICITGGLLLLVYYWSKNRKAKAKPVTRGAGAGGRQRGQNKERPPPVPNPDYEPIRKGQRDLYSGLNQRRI
Assay: cell-based or functional assay

| Binder | increase rate due to the protease treatment (luciferase, uPA-treated / untreated), antibody 0.1 nM | increase rate due to the protease treatment (luciferase, uPA-treated / untreated), antibody 1 nM |
| --- | --- | --- |
| B1 | 1.2 ratio | 2.4 ratio |
| B2 | 1 ratio | 1.7 ratio |
